The record followed here is US20230136228A1 (LAMKAP BIO ALPHA, published 2023).

Where a chain is given by its changes, count along the chain named. Numbers in names are those of the source.

Holding throughout (assay): flow cytometry, transfected PEAK cells, 10 mcg/ml
For assay [1], the target named is T1, human CEACAM8 (human, UniProt P31997 35-320).
T1 construct: whole, on cells
T1 sequence (looked up): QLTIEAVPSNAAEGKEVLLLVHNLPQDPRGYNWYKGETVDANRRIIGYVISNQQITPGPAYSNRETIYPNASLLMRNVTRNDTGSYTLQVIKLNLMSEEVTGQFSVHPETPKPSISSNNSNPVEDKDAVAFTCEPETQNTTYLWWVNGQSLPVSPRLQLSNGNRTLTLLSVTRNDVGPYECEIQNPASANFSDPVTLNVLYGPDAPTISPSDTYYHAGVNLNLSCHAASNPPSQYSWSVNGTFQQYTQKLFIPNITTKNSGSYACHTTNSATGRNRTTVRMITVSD
The text has this: (§1) Vectors encoding the full-length version of human CEACAM 1, 3, 4, 5, 6, 7, 8, 18, 19, 20 and […] are used to express these proteins at the surface of PEAK and/or CHO cells as described in Example 1. Similarly, vectors encoding the full-length version of cyno CEACAM 5 and 6 are also used to express these proteins at the surface of PEAK and/or CHO cells. Non-transfected PEAK and/or CHO cells are used as negative control. Cells are harvested, counted, checked for viability and resuspended at 3×10⁶ cells/ml in FACS buffer (PBS 2% BSA, 0.1% NaN₃). 100 μl of the cell suspension are distributed in V-bottom 96-well plates (3×10⁵ cells/well). The supernatant is removed by centrifugation 3 minutes at 4° C., 1300 rpm and the cells incubated for 15 minutes at 4° C. with increasing concentrations of the antibody according to the invention. The antibodies carrying the anti-CEACAM5 arms to test are diluted in FACS buffer and the concentration range is 30 pM-500 nM. Cells are washed twice with cold FACS buffer and re-incubated for further 15 minutes at 4° C. with a compatible anti-human IgG secondary antibody. Cells are washed twice with cold FACS buffer and resuspended in 300 μl FACS buffer with 1:1500-diluted TOPRO-3 (Invitrogen). Fluorescence is measured using a FACSCalibur™ (BD Biosciences) or a Cytoflex Platform (Beckman Coulter). Dose-response binding curves are fitted using GraphPad Prism8 software. In the same manner, CEACAM1, CEACAM6 and other CEACAMs can be characterized.
(§2) For the bispecific antibodies AB17L3-1/N, AB71L3-1/N, AB72L3-1/N, AB73L3-1/N the MFI measured for binding to CEACAM5 transfected cells was found between 29000 and 41000 (Table 2). In contrast MFI found by using PEAK cells transfected with CEACAM 1,3,4,6,8 were found below 1000 with the only exception of a strong signal for AB72L3-1/N on CEACAM8 transfected cells. When MFI values obtained on transfected cells expressing any given CEACAM are divided by the values obtained on WT PEAK cells, “factors to PEAK WT” can be calculated (Table 3).

The target of assay [2] is T2, human CEACAM5 (carcinoembryonic antigen, CEA), cell surface (human, UniProt P06731 35-685).
T2 construct: whole, on cells; also called CD66e
T2 sequence (looked up): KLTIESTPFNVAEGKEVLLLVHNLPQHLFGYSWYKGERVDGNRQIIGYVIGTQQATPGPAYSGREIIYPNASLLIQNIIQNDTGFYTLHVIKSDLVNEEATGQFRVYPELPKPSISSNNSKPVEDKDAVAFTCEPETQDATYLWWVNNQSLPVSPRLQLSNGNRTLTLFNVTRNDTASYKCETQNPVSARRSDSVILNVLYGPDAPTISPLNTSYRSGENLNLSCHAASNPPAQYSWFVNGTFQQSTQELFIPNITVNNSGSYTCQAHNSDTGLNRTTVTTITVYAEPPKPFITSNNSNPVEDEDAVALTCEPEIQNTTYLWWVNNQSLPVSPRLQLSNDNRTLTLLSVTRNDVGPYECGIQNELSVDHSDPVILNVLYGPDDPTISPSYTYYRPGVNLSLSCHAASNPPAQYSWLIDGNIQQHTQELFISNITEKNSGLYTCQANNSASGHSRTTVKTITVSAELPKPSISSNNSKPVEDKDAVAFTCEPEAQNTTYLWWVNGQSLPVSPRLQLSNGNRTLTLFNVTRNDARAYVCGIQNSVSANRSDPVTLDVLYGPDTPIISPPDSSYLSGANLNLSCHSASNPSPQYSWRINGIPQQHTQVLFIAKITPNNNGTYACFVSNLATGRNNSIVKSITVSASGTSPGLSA
Text: as §1, §2

For assay [3], the target named is T3, human CEACAM4 (human, UniProt O75871 36-244).
T3 construct: whole, on cells
T3 sequence (looked up): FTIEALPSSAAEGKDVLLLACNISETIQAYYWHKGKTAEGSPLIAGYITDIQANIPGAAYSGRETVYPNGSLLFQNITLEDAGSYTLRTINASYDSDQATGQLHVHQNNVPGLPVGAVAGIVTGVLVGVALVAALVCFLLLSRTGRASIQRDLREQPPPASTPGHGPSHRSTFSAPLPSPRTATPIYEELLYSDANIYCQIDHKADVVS
Text: as §1, §2

Assay [4] addresses T4, human CEACAM6 (human, UniProt P40199 35-320).
T4 construct: whole, on cells; also called CD66c
T4 sequence (looked up): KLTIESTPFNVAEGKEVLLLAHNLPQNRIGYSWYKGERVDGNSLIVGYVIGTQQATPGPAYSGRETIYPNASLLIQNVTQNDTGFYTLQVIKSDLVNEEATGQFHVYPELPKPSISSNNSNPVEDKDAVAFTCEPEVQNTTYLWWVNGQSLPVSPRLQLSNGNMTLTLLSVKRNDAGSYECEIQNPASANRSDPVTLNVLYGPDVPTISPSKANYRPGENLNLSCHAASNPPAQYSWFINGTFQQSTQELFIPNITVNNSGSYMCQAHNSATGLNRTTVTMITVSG
Text: as §1, §2

B1: AB17L3-1/N (bispecific antibody, human IgG1, kappa, lambda, L234A L235A)
heavy: EVQLVESGGGLVQPGGSLKLSCAASGFTFNTYAMNWVRQAPGKGLEWVGRIRSKYNNYATYYADSVKDRFTISRDDSKNTAYLQMNSLKTEDTAVYYCVRHGNFGNSYVSWFAYWGQGTLVTVSSASTKGPSVFPLAPSSKSTSGGTAALGCLVKDYFPEPVTVSWNSGALTSGVHTFPAVLQSSGLYSLSSVVTVPSSSLGTQTYICNVNHKPSNTKVDKRVEPKSCDKTHTCPPCPAPEAAGGPSVFLFPPKPKDTLMISRTPEVTCVVVDVSHEDPEVKFNWYVDGVEVHNAKTKPREEQYNSTYRVVSVLTVLHQDWLNGKEYKCKVSNKALAAPIEKTISKAKGQPREPQVYTLPPSREEMTKNQVSLTCLVKGFYPSDIAVEWESNGQPENNYKTTPPVLDSDGSFFLYSKLTVDKSRWQQGNVFSCSVMHEALHNHYTQKSLSLSPG
light 1: EIVLTQSPATLSLSPGERATLSCRASQSVNSNLNWYQQKPGQAPRLLIYHGSNRATGIPARFSGSGSGTDFTLTISSLEPEDFAVYYCQQFDYFKEHNTFGQGTKVEIKRTVAAPSVFIFPPSDEQLKSGTASVVCLLNNFYPREAKVQWKVDNALQSGNSQESVTEQDSKDSTYSLSSTLTLSKADYEKHKVYACEVTHQGLSSPVTKSFNRGEC
light 2: QTVVTQEPSLTVSPGGTVTLTCRSSTGAVTTSNYANWFQQKPGQAPRGLIGGTNKRAPGTPARFSGSLLGGKAALTLSGAQPEDEAEYYCALWYKQRWVFGGGTKLTVLGQPKAAPSVTLFPPSSEELQANKATLVCLISDFYPGAVTVAWKADSSPVKAGVETTTPSKQSNNKYAASSYLSLTPEQWKSHRSYSCQVTHEGSTVEKTVAPTECS
notes: Kappa-lambda body, lead optimization wave 1
Turning to B1, the MFI in assay [1] amounted to 411 MFI; in assay [2], 29200 MFI; in assay [3], 431 MFI; in assay [4], 541 MFI.

B2: AB1L3-1/N (bispecific antibody, human IgG1, kappa, lambda, L234A L235A)
heavy: B1 heavy
light 1: B1 light 1 with Y93L, F94R, K95H
light 2: B1 light 2
notes: Kappa-lambda body: common heavy chain (hIgG1 L234A+L235A+P329A), kappa CEA light chain AB1, lambda CD3 light chain L3-1 (1A4); also called parental KL bispecific antibody
For B2, the MFI in assay [1] came to 343 MFI; in assay [2], 7750 MFI; in assay [3], 330 MFI; in assay [4] it was 373 MFI.

B3: AB71L3-1/N (bispecific antibody, human IgG1, kappa, lambda, L234A L235A)
heavy: B1 heavy
light 1: B1 light 1 with G51S, A55P, T56H
light 2: B1 light 2
notes: Kappa-lambda body, lead optimization wave 2
As to B3, the MFI is 391 MFI in assay [1], 35100 MFI in assay [2], 323 MFI in assay [3] and 420 MFI in assay [4].

B4: AB73L3-1/N (bispecific antibody, human IgG1, kappa, lambda, L234A L235A)
heavy: B1 heavy
light 1: B1 light 1 with G51S, S52N, A55P, T56H, K95R, H97Y
light 2: B1 light 2
notes: as for B3
As for B4, the MFI in assay [1] was 401 MFI; in assay [2] it was 36200 MFI; in assay [3] it was 352 MFI; in assay [4] it was 490 MFI.

B5: AB72L3-1/N (bispecific antibody, human IgG1, kappa, lambda, L234A L235A)
heavy: B1 heavy
light 1: B1 light 1 with G51S, S52T, A55P, T56R, H97Y
light 2: B1 light 2
notes: as for B3
B5: the MFI came to 6290 MFI in assay [1], 41000 MFI in assay [2], 402 MFI in assay [3] and 562 MFI in assay [4].
